The record followed here is PMC10371762 (Bioactive Materials, 2023).

Holding throughout (assay): SPR
A general note: SPR reads the build-up and loss of mass on a sensor chip optically.

One assay deals with T1, Noggin (UniProt Q13253 28-232, biotinylated).
T1 sequence: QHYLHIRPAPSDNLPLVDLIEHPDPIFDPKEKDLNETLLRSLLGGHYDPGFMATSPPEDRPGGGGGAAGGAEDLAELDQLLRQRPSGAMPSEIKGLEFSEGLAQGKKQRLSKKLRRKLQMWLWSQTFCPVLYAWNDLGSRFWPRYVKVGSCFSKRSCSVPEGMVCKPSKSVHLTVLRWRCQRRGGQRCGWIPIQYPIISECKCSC

For assay [1], the target named is T2, human BMPR-II extracellular domain (human, UniProt Q13873 32-150, biotinylated at a 1:1 molar stoichiometric ratio using Sulfo-NHS-LC-biotin).
T2 sequence: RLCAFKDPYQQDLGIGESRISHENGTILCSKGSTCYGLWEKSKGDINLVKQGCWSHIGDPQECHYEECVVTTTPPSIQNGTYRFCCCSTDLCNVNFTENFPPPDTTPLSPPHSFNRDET

For assay [2], the target named is human ALK1 extracellular domain (human, UniProt P37023 22-118, biotinylated at a 1:1 molar stoichiometric ratio using Sulfo-NHS-LC-biotin).
Chain of human ALK1 extracellular domain (P37023 22-118): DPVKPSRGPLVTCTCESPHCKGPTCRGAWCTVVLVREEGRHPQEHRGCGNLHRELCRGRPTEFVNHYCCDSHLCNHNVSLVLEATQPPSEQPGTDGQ

B1: BMP2 WT (ligand)
chain: QAKHKQRKRLKSSCKRHPLYVDFSDVGWNDWIVAPPGYHAFYCHGECPFPLADHLNSTNHAIVQTLVNSVNSKIPKACCVPTELSAISMLYLDENEKVVLKNYQDMVVEGCGCR
For B1, the Kd came out at 1.2 nM in the assay with Noggin and 66.9 nM in assay [1].

B2: BMP9 WT (ligand)
chain: SAGAGSHCQKTSLRVNFEDIGWDSWIIAPKEYEAYECKGGCFFPLADDVTPTKHAIVQTLVHLKFPTKVGKACCVPTKLSPISVLYKDDMGVPTLKYHYEGMSVAECGCR
For B2, the dissociation constant Kd in assay [1] came out at 13.3 nM.

B3: BMP9 HB (ligand)
chain: MAQAHKHQRKRLKSSCQKTSLRVNFEDIGWDSWIIAPKEYEAYECKGGCFFPLADDVTPTKHAIVQTLVHLKFPTKVGKACCVPTKLSPISVLYKDDMGVPTLKYHYEGMSVAECGCR
With B3, the results for the Kd in assay [1] and in assay [2] were 11.6 nM and 5.59 nM, respectively.

As usually defined, the Kd is the equilibrium constant for the complex coming apart.
